Laboratory results taken from patent publication US20250161428A1, “PREVENTING/TREATING PSEUDOMONAS AERUGINOSA INFECTION” (priority 2022, published 2025).

B1: 3C4: mouse IgG2b monoclonal antibody to the A-PS terminus; VH SEQ ID NO: 22, VL SEQ ID NO: 26 (antibody, V domains shown)
VH: EVKLVESGGGLVQPGGSLRLSCATSGFTFTDYYMSWVRQPPGKALEWLGFIRNKANGYTTEYSASVKGRFTISRDNSQSILYLQMNTLRAEDSATYYCTRAIYYGYDGFAYWGQGTLVTVSA
VL: DAVMTQTPLSLPVSLGDQASISCRSSQSLENSNGNTYLNWYLQKPGQSPQLLIYRVSNRFSGVLDRFSGSGSGTDFTLKISRVEAEDLGVYFCLQVTHVPFTFGSGTKLEIK
B2: 1B1: mouse IgM monoclonal antibody to the A-PS terminus; VH SEQ ID NO: 4, VL SEQ ID NO: 8 (antibody, V domains shown)
VH: DVKLVESGGGLVKVGGSLKISCAASGFPFSDYYMAWVGQTPEKRLELVAAINGDGGTTYYPDTVKGRFIISRDNAKNTLYLQMSSLRSEDTALYYCVRGRRITGTGAIDYWGQGTSVTVSS
VL: QIFLTQSPVILSASPGEKVTMTCSATSNISYMYRYQQKPGSSPKPWIYGTSNLASRVPARFSGSGSGTSYSLTISNMEAEDAATYYCQIYHSYPYTFGGGTKLEIK

Columns and labels:
purified PAO1 LPS = experiment: mAb competition ELISA; format: binding, P. aeruginosa; settings: PAO1 LPS coated plates; 3C4 at 62.5 μg/ml
Method: (§1) The plate was washed and mAb 3C4 was added at a constant concentration (62.5 μg/ml). A secondary mAb specific for mAb 3C4 was added and absorbance was measured after a colour reagent was added (line with square markers). The absorbance obtained when 3C4 was added to the plate without 1B1 competition is shown by the line with a triangle marker.
as §1, with “to” for “to the”, “3B8” for “1B1”
mAb competition ELISA: Wells of Nunc Maxisorp EIA plates were coated with 1 μg of P. aeruginosa LPS in PBS overnight at 4° C. and then brought to RT before use. Plates were blocked with 1% BSA-PBS for 1 h at RT, and then wells were washed with PBS-T. One mAb (1B1 or 3B8) was titrated and added to the plate for 1 h at RT. Following washing with PBS-T, the second mAb (3C4) was added at a pre-determined concentration and allowed to incubate for 1 h at RT. Following washing with PBS-T, AP-labeled goat anti-mouse IgG2b (Southern Biotech) specific for mAb 3C4, diluted 1:250 in 1% BSA-PBS was added for 1 h at RT. The plates were then washed with PBS-T and developed with Phosphatase Substrate System (Kirkegaard and Perry Laboratories). After 60 min absorbance was measured at 405 nm using a microtiter plate reader.

[1] = test system: killed whole cells of P. aeruginosa strains; experiment: ELISA binding of mAbs to killed whole cells; settings: for range of P. aeruginosa strains recognised: summary statement, serotype strains and clinical isolates
Method: FIGS. 11A, 11B, and 11C show ELISA analysis of binding of 1B1 (FIG. 11A), 3B8 (FIG. 11B), and 3C4 (FIG. 11C) purified monoclonal antibodies (mAbs) (all at 100 μg/ml) to killed whole cells of P. aeruginosa strains NRCC #'s 6678, 6668-70, 6954-60 and negative control strains M. catarrhalis 6541 and N. meningitidis 6263 (see Table 1 for full details of strains).
(§2) ELISA: The binding of anti-P. aeruginosa A-band terminal epitope mAbs and polyclonal sera to BSA conjugates, purified LPS and to whole cells was evaluated by ELISA as described previously.

[2] = test system: purified LPS antigens of P. aeruginosa strains; experiment: ELISA binding of mAbs to purified LPS
Method: as §2

Molecule	epitope relation in competition ELISA with mAb 3C4 (purified PAO1 LPS)	range of P. aeruginosa strains recognised [1]	recognition of purified LPS from A-band locus mutants PAO1 (wzy::Gm)(Δpa5457) and PAO1 (wzy::Gm)(Δpa5458) [2]	cross reactivity to a set of clinical isolates ([1]; killed whole cells, purified mAbs at 100 μg ml^−1)	cross reactivity to killed whole cells of A-band locus mutants and ATCC type strains of common clinical serotypes ([1]; purified mAbs at 100 μg/ml)
B1	recognised similar overlapping epitopes	recognition restricted to the wt serotype 5 strains PAO1 BAA-47 and 5937	–	–	–
B2	recognised a unique epitope compared to 3C4	majority of P. aeruginosa strains tested were recognised	could recognise	broad cross reactivity	the only mAb that was cross reactive
